Target: GrpU protein from Clostridiales bacterium 1_7_47FAA (Clostridiales bacterium 1_7_47FAA)
Assay: crystal structure

stoichiometry N: 6
Substance: GrpU protein from Clostridiales bacterium 1_7_47FAA (natural protein)

From publication PMC4175982
